Paper doi:10.1101/2023.11.30.569340
pKd: −log10 of the molar value.

Legend:
[1] = target: EEEV PE6 virus-like particle (VLP) (Eastern equine encephalitis virus, strain PE6); assay: BLI
[2] = target: EEEV E2 domain B (Eastern equine encephalitis virus); assay: BLI

Substance	pKd [1]	pKd [2]
S. vulgaris VLDLR LA1-8-Fc (Fc fusion)	7.96	
VLDLR LA1-2-Fc (Fc fusion)	6.30	
VLDLR LA1-3-Fc (Fc fusion)	6.44	
VLDLR LA1-8-Fc (Fc fusion)	8.54	5.85
VLDLR LA2-3-Fc (Fc fusion)	5.74	
VLDLR LA2-4-Fc (Fc fusion)	5.96	
VLDLR LA2-5-Fc (Fc fusion)	7.37	
VLDLR LA3-4-Fc (Fc fusion)	5.41	
VLDLR LA3-5-Fc (Fc fusion)	7.49	
VLDLR LA3-6-Fc (Fc fusion)	7.15	
VLDLR LA4-5-Fc (Fc fusion)	4.92	
VLDLR LA4-6-Fc (Fc fusion)	5.64	
VLDLR LA5-6-Fc (Fc fusion)	5.38	
